Test [1] deals with T1, human His-tagged 4-1BB recombinant protein (human, UniProt Q07011 24-186).
T1 construct: also called human 4-1BB; h4-1BB; not shown: His tag
In words: ELISA (FIG. 7A), bivalent monoparatopic Fab-like. On the technique in general: In an ELISA, binding on a coated surface is turned into a signal by an enzyme label.

The target in test [2] is T2, human PD-1 expressed on cells (300.19 pre-B cells, PD-1 NFAT-luc2 Jurkat cells, primary T-cells) (human, UniProt Q15116 25-288).
T2 construct: GenBank NP 005009.2 printed; also called hPD-1; Pre-B hPD-1
T2 sequence (Q15116 25-288 limits assumed): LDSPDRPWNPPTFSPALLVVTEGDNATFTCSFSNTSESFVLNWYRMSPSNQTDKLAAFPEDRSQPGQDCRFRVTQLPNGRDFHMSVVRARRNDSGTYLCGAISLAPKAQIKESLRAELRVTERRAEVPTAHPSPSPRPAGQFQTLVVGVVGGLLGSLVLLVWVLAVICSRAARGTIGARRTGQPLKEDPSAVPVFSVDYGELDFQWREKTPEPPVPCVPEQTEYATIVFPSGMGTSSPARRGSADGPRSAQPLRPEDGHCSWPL
Put plainly: flow cytometry on Jurkat reporter cells. A general note: Flow cytometry measures light scatter and fluorescence of single cells or particles in a stream.

The target in test [3] is T2, human PD-1 expressed on cells (300.19 …). In words: cell-based or functional assay.
Test [4] addresses T3, PD-1 in the PD-1/PD-L1 interaction assay (human, UniProt Q15116 25-167, limits assumed). In words: PD-1/PD-L1 interaction assay, Relative EC50, IgG1 LALA.
In test [5] the target is T4, human 4-1BB expressed on cells (300.19 pre-B cells, Jurkat NF-κB-luc2P cells, primary T-cells) (human, UniProt Q07011 24-255).
T4 construct: also called h4-1BB; Pre-B h4-1BB
T4 sequence (Q07011 24-255 limits assumed): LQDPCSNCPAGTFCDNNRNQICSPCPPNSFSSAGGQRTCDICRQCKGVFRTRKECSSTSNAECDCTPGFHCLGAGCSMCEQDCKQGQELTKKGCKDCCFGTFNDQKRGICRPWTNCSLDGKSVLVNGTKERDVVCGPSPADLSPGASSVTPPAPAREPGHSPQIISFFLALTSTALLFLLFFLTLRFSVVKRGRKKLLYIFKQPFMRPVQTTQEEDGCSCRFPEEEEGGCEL
Put plainly: flow cytometry on transfected 300.19 pre-B cells.

Test [6] concerns the target T5, cynomolgus monkey 4-1BB expressed on 300.19 pre-B cells (cynomolgus monkey, UniProt A9YYE7 24-254).
T5 construct: whole, on cells; also called cy4-1BB; Pre-B cy4-1BB
Put plainly: flow cytometry on transfected 300.19 pre-B cells.

The target in test [7] is T6, cynomolgus monkey PD-1 expressed on 300.19 pre-B cells (cynomolgus monkey, UniProt B0LAJ3 25-288).
T6 construct: also called cyPD-1; Pre-B cyPD-1
T6 sequence (B0LAJ3 entry or part of it limits assumed): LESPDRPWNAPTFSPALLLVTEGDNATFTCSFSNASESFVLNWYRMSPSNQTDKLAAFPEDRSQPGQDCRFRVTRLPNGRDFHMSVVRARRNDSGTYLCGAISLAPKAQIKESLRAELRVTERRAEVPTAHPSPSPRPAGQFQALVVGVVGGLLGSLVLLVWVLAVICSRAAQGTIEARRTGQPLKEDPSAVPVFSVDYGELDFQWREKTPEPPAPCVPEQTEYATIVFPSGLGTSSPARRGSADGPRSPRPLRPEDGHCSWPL
Put plainly: flow cytometry on transfected 300.19 pre-B cells.

Test [8] concerns the target T2, human PD-1 expressed on cells (300.19 …). Put plainly: flow cytometry on transfected 300.19 pre-B cells.
Test [9] shares this target. Put plainly: flow cytometry on anti-CD3-stimulated primary human T-cells.
In test [10] the target is T3, PD-1 in the PD-1/PD-L1 interaction assay. In words: PD-1/PD-L1 interaction assay, EC50 of Fab against IgG1 LALA.
Test [11] shares this target. In words: PD-1/PD-L1 interaction assay, Relative EC50, Fab.
The target in test [12] is T4, human 4-1BB expressed on cells (300.19 …). In words: flow cytometry on Jurkat reporter cells.
The target is the same in test [13]. Put plainly: cell-based or functional assay.
For test [14], the target named is T7, human 4-1BB (SPR analyte) (human, UniProt Q07011 24-186).
T7 construct: also called h4-1BB
In words: SPR (Biacore 8K), binder captured on anti-Fc chip, target as analyte, 1:1 model. For orientation: In SPR one partner is held on a chip, and binding of the other changes the refractive index at the surface.

Test [15] has as its target T8, cynomolgus monkey 4-1BB (SPR analyte) (cynomolgus monkey, UniProt A9YYE7 24-186).
T8 construct: also called cy4-1BB
T8 sequence: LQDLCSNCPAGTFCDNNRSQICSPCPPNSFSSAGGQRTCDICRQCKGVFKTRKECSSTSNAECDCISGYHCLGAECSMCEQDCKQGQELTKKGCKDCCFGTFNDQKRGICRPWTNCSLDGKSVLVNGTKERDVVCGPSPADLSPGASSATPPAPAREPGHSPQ
The description is as above.

In test [16] the target is T9, cynomolgus monkey PD-1 (SPR analyte) (cynomolgus monkey, UniProt B0LAJ3 25-170).
T9 construct: also called cyPD-1
T9 sequence (B0LAJ3 entry or part of it limits assumed): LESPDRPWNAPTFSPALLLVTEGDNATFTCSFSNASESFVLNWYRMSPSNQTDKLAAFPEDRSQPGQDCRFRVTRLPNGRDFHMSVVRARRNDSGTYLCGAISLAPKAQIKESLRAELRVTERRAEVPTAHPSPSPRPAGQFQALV
Put plainly: SPR, KD on cyPD-1 against KD on hPD-1.

In test [17] the target is T8, cynomolgus monkey 4-1BB (SPR analyte). In words: SPR, KD on cy4-1BB against KD on h4-1BB.
Test [18] addresses T10, human PD-1 (SPR analyte) (human, UniProt Q15116 25-167, limits assumed).
T10 construct: Soluble analyte in SPR; also called hPD-1
In words: SPR (Biacore 8K), binder captured on anti-Fc chip, target as analyte, 1:1 model.

The target in test [19] is T7, human 4-1BB (SPR analyte). Described as above. The source holds these as a separate data set.
Test [20] deals with T10, human PD-1 (SPR analyte). Described as above. This is another data set of the same source.
Test [21] has as its target T9, cynomolgus monkey PD-1 (SPR analyte). Described as above.

Read-outs that look alike come from different tables or passages of the source.

4 molecules from US20240262923A1 (Sanofi, published 2024) can be followed below.

What is called EC50 is the midpoint of the concentration-response curve. A word on the Kd: it is the equilibrium constant for the complex coming apart.

T10 sequence (Q15116 25-167 limits assumed): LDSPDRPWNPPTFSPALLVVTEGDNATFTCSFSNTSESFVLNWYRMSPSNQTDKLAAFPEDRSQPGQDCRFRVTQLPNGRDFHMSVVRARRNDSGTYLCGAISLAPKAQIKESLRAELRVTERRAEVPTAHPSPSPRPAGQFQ
T3 sequence (Q15116 25-167 limits assumed): as above

B1: anti-4-1BB clone #5c VHH, bivalent monoparatopic Fab-like construct (other)
chain 1: QVQLQESGGGLVQAGGSLRLSCAASGDTFSSYAMGWFRQAPGERLEWVASINPSGGSQSYHPSVKDRFTISRDNGKNILFLQLDKLNPEDTAVYVCARGTRYKIFASGQGTQVTVSS
chain 2: QVQLQESGGGLVQAGGSLRLSCAASGDTFSSYAMGWFRQAPGERLEWVASINPSGGSQSYHPSVKDRFTISRDNGKNILFLQLDKLNPEDTAVYVCARGTRYKIFASGQGTQVTVSS
notes: not shown: human CL (lambda) constant domain, tag if any; human IgG1 CH1 domain, HA and 6-His tags
Consider B1, for which the binding result in test [1] is “binds”.

B2: anti-PD-1 antibody clone T5 (IgG1 LALA) (antibody, V domains shown)
VH: QLQLQESGPGLVKPSETLSLTCTVSGGSISTSSYFWGWIRQPPGKGLEWIGSIYRSGSTYYNPSLKSRVTISVDTSKNQFSLKLSSVTAADTAVYYCARGITGDPGDYWGQGTLVTVSS
VL: EIVLTQSPATLSLSPGERATLSCGASQSVSINFLAWYQQKPGLAPRLLIYEASSRATGIPDRFSGSGSGTDFTLTISRLEPEDFAVYYCQQYGSSPYTFGQGTKLEIK
In the case of B2, the EC50 came out at 0.278 nM in [2]; 0.278 nM in test [4]; 0.417 nM in [7]; 0.284 nM in test [8]; 0.205 nM in [9]. In addition, the Emax in test [2] is 280 MFI; in [7] it was 17700 MFI; in test [8] it was 6240 MFI. Besides, in test [3], the “IC50 (nM) PD-1 reporter assay” value stood at 2.8 nM. For the same molecule, the binding result in test [5] and in test [6] was “no binding” in each case.

B3: anti-PD-1 antibody clone T5, Fab format (Fab, V domains shown)
VH: QLQLQESGPGLVKPSETLSLTCTVSGGSISTSSYFWGWIRQPPGKGLEWIGSIYRSGSTYYNPSLKSRVTISVDTSKNQFSLKLSSVTAADTAVYYCARGITGDPGDYWGQGTLVTVSS
VL: EIVLTQSPATLSLSPGERATLSCGASQSVSINFLAWYQQKPGLAPRLLIYEASSRATGIPDRFSGSGSGTDFTLTISRLEPEDFAVYYCQQYGSSPYTFGQGTKLEIK
For the molecule B3, in test [10], the “Ratio Fab:IgG1” value came to 176 fold. The same molecule registered an EC50 in test [11] of 48.8 nM.

B4: Construct #3 (anti-4-1BB/anti-PD-1 bispecific binding molecule) (bispecific antibody, IgG1)
heavy: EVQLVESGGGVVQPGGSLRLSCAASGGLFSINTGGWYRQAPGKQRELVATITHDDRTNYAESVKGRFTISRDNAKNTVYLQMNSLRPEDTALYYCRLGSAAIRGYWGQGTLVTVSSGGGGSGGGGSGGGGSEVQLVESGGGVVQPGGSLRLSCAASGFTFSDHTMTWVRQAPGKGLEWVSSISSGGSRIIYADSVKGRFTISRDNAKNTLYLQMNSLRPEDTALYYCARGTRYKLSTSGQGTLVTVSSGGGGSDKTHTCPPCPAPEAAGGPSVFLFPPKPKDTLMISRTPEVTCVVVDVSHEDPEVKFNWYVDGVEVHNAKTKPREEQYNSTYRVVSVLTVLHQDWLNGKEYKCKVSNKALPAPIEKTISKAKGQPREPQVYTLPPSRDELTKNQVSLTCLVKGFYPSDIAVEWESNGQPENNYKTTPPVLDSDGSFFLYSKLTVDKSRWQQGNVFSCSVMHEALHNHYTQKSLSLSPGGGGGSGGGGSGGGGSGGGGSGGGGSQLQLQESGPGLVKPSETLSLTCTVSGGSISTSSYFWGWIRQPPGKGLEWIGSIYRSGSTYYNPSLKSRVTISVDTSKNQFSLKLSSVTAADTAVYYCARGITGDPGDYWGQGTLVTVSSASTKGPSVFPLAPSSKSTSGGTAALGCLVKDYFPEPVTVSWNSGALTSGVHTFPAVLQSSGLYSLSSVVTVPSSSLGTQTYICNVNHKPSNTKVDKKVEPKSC
light: EIVLTQSPATLSLSPGERATLSCGASQSVSINFLAWYQQKPGLAPRLLIYEASSRATGIPDRFSGSGSGTDFTLTISRLEPEDFAVYYCQQYGSSPYTFGQGTKLEIKRTVAAPSVFIFPPSDEQLKSGTASVVCLLNNFYPREAKVQWKVDNALQSGNSQESVTEQDSKDSTYSLSSTLTLSKADYEKHKVYACEVTHQGLSSPVTKSFNRGEC
notes: also called Original Construct #3
Consider B4, for which the EC50 was determined as 0.191 nM in test [12]; 12.3 nM in test [2]; 0.299 nM in test [5]; 0.312 nM in test [6]; 7.77 nM in test [7]; 3.69 nM in test [8]. The Emax in [2] turned out to be 321 MFI; in test [7], 13800 MFI; in test [8], 3750 MFI. Further, the “EC50 (nM) 4-1BB reporter assay” value in [13] is 0.1 nM. For the same molecule, in test [3], the “IC50 (nM) PD-1 reporter assay” value was 6.7 nM. For the same molecule, the Kd is 11.8 nM in test [14]; 25.1 nM in test [15]; 16 nM with human PD-1 (SPR analyte) [18]; 7.82 nM in test [19]; 7.05 nM in the test with human PD-1 (SPR analyte) [20]; 18.2 nM in [21]. Besides, the results for the “Ratio KD cyno/human” value in test [16] and in test [17] were 2.6 fold and 2.1 fold, respectively.
